The record followed here is the RNAGym collection of RNA variant scans (doi:10.1093/molbev/msab373).

B1: Azoarcus group I ribozyme (parent)
chain: GUGCCUUGCGCCGGGAAACCACGCAAGGGAUGGUGUCAAAUUCGGCGAAACCUAAGCGCCCGCCCGGGCGUAUGGCAACGCCGAGCCAAGCUUCGGCGCCUGCGCCGAUGAAGGUGUAGAGACUAGACGGCACCCACCUAAGGCAAACGCUAUGGUGAAGGCAUAGUCCAGGGAGUGGCGAAAGUCACACAAACCGG

The variants in the series derive from B1. Put plainly: reverse-splicing fitness (ratio to wild type); higher = more active; in vitro selection; Mg2+ level not given. The procedure, abridged: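 An in vitro group I ribozyme library with randomized positions was T7-transcribed and gel-purified. In triplicate, 10 pmol RNA in EPPS pH 7.5 was reacted with 50 pmoles of a 30-nt RNA substrate for 1 h at 37 °C across several added MgCl2 levels (1–48 mM), then stopped with EDTA. Products were reverse transcribed from a substrate-complementary primer, PCR-amplified and sequenced (HiSeq 4000). Fitness is a variant's read proportion after selection over that before, normalised to wild type.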
Consider A111C A120G A145C C150G C169U U176G, for which the reverse-splicing fitness amounted to 0.004.
Regarding A111C A120G A145C C150G C169U U176C, the reverse-splicing fitness came to 0.013.
For the variant A111C A120G A145C C150G C169U U176A, the reverse-splicing fitness was found to be 0.0111.
For A111C A120G A145G C150A, the reverse-splicing fitness was found to be 0.0307.
The result for A111C A120G A145G C150U reads 0.139.
Turning to A111C A120G A145G C150G, the reverse-splicing fitness turned out to be 0.0228.
As to A111C A120G A145C C150G U176A, the reverse-splicing fitness came to 0.0112.
For A111C A120G A145C C150G U176C the value was 0.0168; for A111C A120G A145C C150G U176G, 0.00301; for A111C A120G A145C C150G C169A U176A, 0.00964.
For A111C A120G A145C C150G C169A U176G the value was 0.0045; for A111C A120G A145C C150G C169A U176C, 0.00838.
On to A111C A120G A145C C150U C169G U176G, for which the reverse-splicing fitness is 0.00474.
For A111C A120G A145C C150U C169G U176A the value was 0.0253.
As for A111C A120G A145C C150U C169G U176C, the reverse-splicing fitness came out at 0.0221.
On to A111C A120G A145C U176A, for which the reverse-splicing fitness turned out to be 0.0323.
The result for A111C A120G A145C U176G reads 0.00548; that for A111C A120G A145C U176C, 0.0361; that for A111C A120C C150U C169A U176C, 0.0142.
A111C A120C C150U C169A U176A: the reverse-splicing fitness is 0.0172.
The result for A111C A120C C150U C169A U176G reads 0.00561.
The result for A111C A120C C169U U176A reads 0.031.
For A111C A120C C169U U176G the value was 0.0068.
As for A111C A120C C169U U176C, the reverse-splicing fitness was determined as 0.0446.
The result for A111C A120G reads 0.185.
The result for A111C A120G A145C C150U C169U U176C reads 0.0192; that for A111C A120G A145C C150U C169U U176A, 0.0247; that for A111C A120G A145C C150U C169U U176G, 0.00528.
Regarding A111C A120G A145C C150A U176A, the reverse-splicing fitness amounted to 0.0112.
The result for A111C A120G A145C C150A U176G reads 0.00357; that for A111C A120G A145C C150A U176C, 0.0118.
As for A111C A120G A145C C169U U176A, the reverse-splicing fitness is 0.0395.
For A111C A120G A145C C169U U176G the value was 0.00492.
In the case of A111C A120G A145C C169U U176C, the reverse-splicing fitness is 0.0394.
For A111C A120G A145U the value was 0.179; for A111C A120G A145G, 0.189.
The result for A111C A120G A145C reads 0.149.
In the case of A111C A120G A145G C150U C169A, the reverse-splicing fitness was 0.0989.
For A111C A120G A145G C150U C169U the value was 0.139.
The result for A111C A120G A145G C150U C169G reads 0.167.
The result for A111C A120G A145G C150A U176G reads 0.0068.
Regarding A111C A120G A145G C150A U176C, the reverse-splicing fitness amounted to 0.0252.
Take A111C A120G A145G C150A U176A: the reverse-splicing fitness was 0.0132.
The result for A111C A120G A145G C169A reads 0.123; that for A111C A120G A145G C169U, 0.167.
With A111C A120G A145G C169G, the reverse-splicing fitness came out at 0.227.
The result for A111C A120C C150U C169G U176G reads 0.00557.
With A111C A120C C150U C169G U176C, the reverse-splicing fitness was 0.0164.
For A111C A120C C150U C169G U176A the value was 0.0124.
On to A111C A120G A145G C150G C169U U176A, for which the reverse-splicing fitness stood at 0.0115.
Take A111C A120G A145G C150G C169U U176G: the reverse-splicing fitness came to 0.00619.
For A111C A120G A145G C150G C169U U176C, the reverse-splicing fitness was determined as 0.0161.
The result for A111C A120G A145G C150U C169G U176G reads 0.00471; that for A111C A120G A145G C150U C169G U176A, 0.0243; that for A111C A120G A145G C150U C169G U176C, 0.035.
A111C A120G A145C C150U U176A: the reverse-splicing fitness was determined as 0.0163.
The result for A111C A120G A145C C150U U176G reads 0.00427.
The result for A111C A120G A145C C150U U176C reads 0.0189; that for A111C A120G A145G C150G C169G U176A, 0.0101; that for A111C A120G A145G C150G C169G U176G, 0.00543.
In the case of A111C A120G A145G C150G C169G U176C, the reverse-splicing fitness stood at 0.0114.
The result for A111C A120G A145C C150U reads 0.0418; that for A111C A120G A145C C150A, 0.0117.
The result for A111C A120G A145C C150G reads 0.0219; that for A111C A120G A145G C150U U176G, 0.00709.
As for A111C A120G A145G C150U U176C, the reverse-splicing fitness came out at 0.04.
On to A111C A120G A145G C150U U176A, for which the reverse-splicing fitness turned out to be 0.0273.
The result for A111C A120G A145G C150A C169U U176C reads 0.0241.
For A111C A120G A145G C150A C169U U176G the value was 0.00466; for A111C A120G A145G C150A C169U U176A, 0.0227; for A111C A120G A145G C150G U176C, 0.0155.
On to A111C A120G A145G C150G U176A, for which the reverse-splicing fitness was 0.00942.
The result for A111C A120G A145G C150G U176G reads 0.00613; that for A111C A120G A145C C150U C169A U176C, 0.011; that for A111C A120G A145C C150U C169A U176G, 0.00455.
For A111C A120G A145C C150U C169A U176A the value was 0.0104.
For A111C A120C C150U U176G the value was 0.0275; for A111C A120C C150U U176C, 0.153.
On to A111C A120C C150U U176A, for which the reverse-splicing fitness stood at 0.128.
As to A111C A120G A145C C150U C169G, the reverse-splicing fitness was found to be 0.0492.
As for A111C A120G A145C C150U C169U, the reverse-splicing fitness is 0.0398.
The result for A111C A120G A145C C150U C169A reads 0.0284; that for A111C A120G A145C C150G C169G U176G, 0.00434.
